US20110135636A1 (SYMPHOGEN A S, published 2011)
Positions count from the first letter of the chain named.

B1: antibody 992 (antibody, human IgG1, kappa, V domains shown)
VH: EVQLQQPGSELVRPGASVKLSCKASGYTFTSYWMHWVKQRPGQGLEWIGNIYPGSRSTNYDEKFKSKATLTVDTSSSTAYMQLSSLTSEDSAVYYCTRNGDYYVSSGDAMDYWGQGTSVTVSS
VL: DIQMTQTTSSLSASLGDRVTISCRTSQDIGNYLNWYQQKPDGTVKLLIYYTSRLHSGVPSRFSGSGSGTDFSLTINNVEQEDVATYFCQHYNTVPPTFGGGTKLEIKR
notes: Chimeric mouse/human IgG1 kappa; the VL entry includes the human kappa constant region
B2: antibody 1024 (antibody, human IgG1, kappa, V domains shown)
VH: QVQLQQPGAELVEPGGSVKLSCKASGYTFTSHWMHWVKQRPGQGLEWIGEINPSSGRNNYNEKFKSKATLTVDKSSSTAYMQFSSLTSEDSAVYYCVRYYGYDEAMDYWGQGTSVTVSS
VL: DIVMTQAAFSNPVTLGTSASISCRSSKSLLHSNGITYLYWYLQKPGQSPQLLIYQMSNLASGVPDRFSSSGSGTDFTLRISRVEAEDVGVYYCAQNLELPYTFGGGTKLEIKR
notes: Chimeric IgG1 kappa
B3: antibody 1030 (antibody, human IgG1, kappa, V domains shown)
VH: EVQLVESGGGLVKPGGSLKLSCAASGFTFSSYALSWVRQTPERRLEWVASISGVGSTYFPDSVKGRFTMSRDNARNILYLQMSSLRSEDTAMYYCARGSDGYFYAMDYWGQGTSVTVSS
VL: DIVLTQSPASLAVSLGQRATISCRASKSVSTSGYSFMHWYQLKPGQPPKLLIYLASNLESGVPARFSGSGSGTDFTLNIHPVEEEDAATYYCQHSREFPLTFGGGTKLEIKR
notes: Chimeric IgG1 kappa
B4: antibody 1208 (antibody, human IgG1, kappa, V domains shown)
VH: EVQLVESGGGLVKPGGSLKLSCAASGFAFSSYDMSWVRQTPEKRLEWVAYIGSGDDNTHYPDSVKGRFTISRHNAKNTLYLQMSSLKSEDTAMYYCARQKYGNYGDTMDYWGQGTSVTVSS
VL: DVVMTQTPLSLPVSLGDQASISCRSSQSLVHSNGNTYLHWYLQKPGQSPKLLIYKVSNRFSGVPDRFSGSGSGTDFTLKISRVEAEDLGVYFCSQSTHVPTFGGGTKLEIKR
notes: Chimeric IgG1 kappa; also called clone 1208
B5: antibody 1344 (antibody, human IgG1, kappa, V domains shown)
VH: QVQLKESGPGLVAPSQSLSITCTVSGFSLTIYGVHWVRQPPGKGLEWLGVIWAGGNTNYNSALMSRLSISKDNSKSQVFLKMNSLQTDDTAMYFCARGYGYNLDYWGQGTTLTVSS
VL: DIQMTQTTSSLSASLGDRVTISCSASQGISNYLNWYQQKPDGTVKLLIYYTSSLHSGVPSRFSGSGSGTDYSLTISNLEPEDIATYYCQQYSKLPYTFGGGTKLEIKR
notes: Chimeric IgG1 kappa
B6: antibody 1320 (antibody, human IgG1, kappa, V domains shown)
VH: QVQLQQPGAELVKPGASMKLSCKASGYTFTNYWMHWVKQRPGQGLEWIGEINPSNGRTNYNEKFKSKATLTVDKSSSTAYMQLSSLTSEDSGVYYCAKGGNYYDYDWDYWGQGTTLTVSS
VL: B5 VL with G28D, Y50H, S53T, Y96W
notes: Chimeric IgG1 kappa
B7: antibody 1347 (antibody, human IgG1, kappa, V domains shown)
VH: QVQLKESGPGLVAPSQSLSITCTVSGFSLTGHGVNWVRQPPGKGLEWLGMIWGDGSTDYNSTLKSRLSISKDNSKSQVFLKMNSLQTDDTARYYCARGYGYLYYFDYWGQGTTLTVSS
VL: ENVLTQSPAIMSASPGEKVTMTCRASSSVSSSYLHWYQQKSGASPKLWIYSTSNLASGVPARFSGSGSGTSYSLTVNSVETEDAATYYCHQYSGFPFTFGSGTKLELKR
notes: Chimeric IgG1 kappa

target: T1, wild type full length EGFR purified from A431 cells (human, UniProt P00533 25-1210); assay: competition ELISA, competitor Ab-5; design: concentration or dose not given beside the values
T1 construct: mature; Bought; coated on ELISA wells; also called full length EGFR receptor antigen; Sigma E3641
Experimental: (§1) The ELISA was adapted from the descriptions published in Ditzel et al, 1995, The Journal of Immunology, Vol 154, Issue 2 893-906.
(§2) An epitope blocking ELISA was performed by diluting full length EGFR receptor antigen to 0.5 μg/ml in PBS; and coating 50 μl/ELISA well overnight at 4° C. […] Finally wells were washed four times with PBS-T and plates were developed by adding 50 μl/well TMB and read at 620 nm every 5-15-30 min. The degree of inhibition was calculated from the formula: % inhibition=(1−(OD competition/OD no competition (PBS)))×100.

| Binder | % inhibition |
| --- | --- |
| B1 | -3% |
| B2 | 12% |
| B3 | 92% |
| B4 | 84% |
| B5 | 28% |
| B6 | 6% |

target: T2, recombinant human EGFR extracellular domain with 6xHis (human, UniProt P00533 25-645); assay: SPR competition, competitor 1308
T2 construct: In-house produced; also called 6xHis EGFR ECD; soluble human EGFR ECD; not shown: 6xHis tag
Experimental: (§3) SPR analysis was performed on a Biacore 3000 machine containing four flow cells. A CM5 Biacore chip was conjugated with 10,000 Resonance units (Ru) polyclonal anti-His antibody to flow cells 1-4 according to the manufacturer's instructions. […] Immediately after antigen injection the maximal binding of the Anti-EGFR mAb without competition was established in each flow cell during a reference run. Briefly 5 μl antibody at a concentration of 40 μg/ml was injected over all flow cells with captured EGFR followed by stripping of the antibody/antigen complex with a low pH acid wash (10 sec. contact time with 10 mM Glycine-HCl, pH2). After the determination of Anti-EGFR antibody maximal binding to each flow cell, a competition run was performed during the same Biacore cycle. Flow cells were first saturated with EGFR ECD antigen followed by injection of different reference antibodies or Anti-EGFR antibodies into separate flow cells using the same antigen saturating conditions as outlined above. This step was immediately followed by a second injection of Anti-EGFR antibody over the flow cell saturated with EGFR antigen and competition antibody to minimize the dissociation of either antigen or blocking antibody. Then the antibody/antigen complexes were stripped off with a low pH acid wash (10 sec. contact time with 10 mM Glycine-HCl, pH 2) and the whole cycle beginning with the reference run was repeated with a new Anti-EGFR antibody. The degree of inhibition of tested Anti-EGFR antibodies were determined by comparing the Ru max value of the individual Anti-EGFR antibody before and after competition by introduction of report points recorded two seconds before and after injection of each sample.

| Binder | % inhibition |
| --- | --- |
| B1 | -9% |
| B2 | -3% |
| B3 | -12% |
| B4 | 5% |
| B5 | 73% |
| B6 | -2% |
| B7 | 82% |

target: T1, wild type full length EGFR purified …; assay: competition ELISA, competitor Ab-1; design: concentration or dose not given beside the values
Experimental: as §1, §2

| Binder | % inhibition |
| --- | --- |
| B1 | 78% |
| B2 | 3% |
| B3 | 91% |
| B4 | 82% |
| B5 | 19% |
| B6 | 9% |

target: T3, Cynomolgus EGFR extracellular domain (Cynomolgus monkey (Macaca fascicularis), UniProt P55245 25-645 (rhesus entry)); assay: ELISA on cynomolgus EGFR ECD (Example 10)
T3 construct: Cloned without signal peptide; also called Cynomolgus rEGFR ECD; Cynomolgus EGFR ECD
Experimental: To verify that tested Anti-EGFR antibodies bound equally well to both Human and Cynomolgus EGFR ECD and accordingly warranting toxicology studies in Cynomolgus monkeys, serial four fold dilutions of antibodies beginning from 1 μg/ml were tested by ELISA for binding to recombinant Human and Cynomolgus EGFR ECD proteins. […] ELISA wells were coated with 50 μl/well of full length EGFR at a concentration of 1 μg/ml in PBS overnight at 4° C. The next morning wells were washed twice with PBS-T and blocked for one hour with 100 μl PBS-T-1% BSA at room temperature, followed by wash twice in PBS-T. Next 50 μl of serially diluted Anti-EGFR antibodies and control antibodies were added to wells and incubated for one hour at room temperature. After antibody incubation wells were washed five times with PBS-T, followed by incubation with 50 μl/well Streptavidin-HRP secondary reagent diluted 1:3000 in blocking buffer and incubation at room temperature for 30 min. Finally wells were washed five times with PBS-T and plates were developed by adding 50 μL/well TMB substrate and incubated at room temperature. After incubation the reaction was stopped by addition of 1 M H₂SO₄; 100 μl/well and plates were read at OD 450 nm.

| Binder | binding result |
| --- | --- |
| B3 | binds |
| B5 | binds |
| B6 | no binding |
| B7 | binds |

target: T1, wild type full length EGFR purified …; assay: competition ELISA, competitor Ab-11; design: concentration or dose not given beside the values
Experimental: as §1, §2

| Binder | % inhibition |
| --- | --- |
| B1 | -2% |
| B2 | 18% |
| B3 | -20% |
| B4 | -3% |
| B5 | 82% |
| B6 | 8% |

target: T1, wild type full length EGFR purified …; assay: competition ELISA, competitor Ab-2; design: concentration or dose not given beside the values
Experimental: as §1, §2

| Binder | % inhibition |
| --- | --- |
| B1 | 77% |
| B2 | 75% |
| B3 | -1% |
| B4 | 20% |
| B5 | 14% |
| B6 | -9% |

target: T2, recombinant human EGFR extracellular …; assay: SPR (BIAcore 2000); IgG captured on anti-human Fc, soluble monovalent EGFR ECD injected
Experimental: Kinetic analysis of the full length IgG antibodies of the invention was performed on a BIAcore 2000, employing an assay as described in (Canziani, Klakamp, et al. 2004, Anal. Biochem, 325:301-307) allowing measurement of monovalent affinities of whole IgG molecules against soluble antigen. […] The chip surface was regenerated in between cycles by stripping the captured antibody/antigen complexes with a 10 second injection of 100 mM H₃PO₄. […] The association rate constant (ka) and dissociation constant (kd) were evaluated globally from the generated sensograms with the BIA evaluation software 4.1 provided by the manufacturer.

| Binder | t1/2 | Kd | koff | kon |
| --- | --- | --- | --- | --- |
| B1 | 0.2 min | – | – | – |
| B2 | 2.4 min | 26.7 nM | 0.0049 s⁻¹ | 180000 M⁻¹ s⁻¹ |
| B3 | 31.1 min | 29.2 nM | 0.00037 s⁻¹ | 13000 M⁻¹ s⁻¹ |
| B6 | 4.1 min | 24.2 nM | 0.0028 s⁻¹ | 120000 M⁻¹ s⁻¹ |
| B7 | 22.9 min | 21.4 nM | 0.0005 s⁻¹ | 24000 M⁻¹ s⁻¹ |

target: T1, wild type full length EGFR purified …; assay: competition ELISA, competitor Ab-3; design: concentration or dose not given beside the values
Experimental: as §1, §2

| Binder | % inhibition |
| --- | --- |
| B1 | -21% |
| B2 | 11% |
| B3 | -35% |
| B4 | -10% |
| B5 | 40% |
| B6 | 0% |

target: T1, wild type full length EGFR purified …; assay: competition ELISA, competitor ICR10; design: concentration or dose not given beside the values
Experimental: as §1, §2

| Binder | % inhibition |
| --- | --- |
| B1 | -20% |
| B2 | 11% |
| B3 | 12% |
| B4 | -21% |
| B5 | 82% |
| B6 | 2% |

target: T4, EGFRvIII (deletion mutant EGFR) (human, UniProt P00533 25-645, limits assumed); assay: EGFRvIII ELISA (Example 1)
T4 construct: also called deltaEGFR; rhEGFRvIII

| Binder | binding result |
| --- | --- |
| B5 | no binding |
| B7 | no binding |

target: T1, wild type full length EGFR purified …; assay: competition ELISA, competitor Ab-10; design: concentration or dose not given beside the values
Experimental: as §1, §2

| Binder | % inhibition |
| --- | --- |
| B1 | -14% |
| B2 | 27% |
| B3 | 92% |
| B4 | 89% |
| B5 | 36% |
| B6 | 7% |

target: T2, recombinant human EGFR extracellular …; assay: SPR competition, competitor 1042
Experimental: as §3

| Binder | % inhibition |
| --- | --- |
| B1 | 21% |
| B2 | 71% |
| B3 | 11% |
| B4 | 9% |
| B6 | 48% |
